Reference: patent US8927700B2, “Catalytic domains from lysyl oxidase and LOXL2” (Gilead Biologics, Inc., priority 2009, dated 2015)

Molecular target: T1, catalytic domain of human LOXL2 (Homo sapiens, UniProt Q9Y4K0)
T1 construct: made in house; host or cells: 293F cells (HEK293 subclone), transient transfection; purified from culture supernatant on Ni-Sepharose
Assay: Amplex Red coupled peroxide assay of lysyl oxidase enzymatic activity (deamination of 1,5-diaminopentane)
Format: biochemical
Settings: 1,5-diaminopentane substrate, 37° C., FIG. 5
Description: A polypeptide containing the catalytic domain of human LOXL2 was produced as described in Example 12 above. Enzymatic activity was assessed using a biochemical assay that couples the production of peroxide (liberated by LOXL2 after deamination of 1,5-diaminopentane) to the HRP-catalyzed conversion of Amplex® red to a fluorescent product (resorufin). Palamakumbura et al. (2002) Anal. Biochem. 300:245-251. Reaction plates were obtained from Corning. Amplex® Red reagent was from Invitrogen (Carlsbad, Calif.). Horseradish peroxidase (HRP), 1,5-diaminopentane, and antifoam were from Sigma (St. Louis, Mo.). All other reagents were of the highest quality available.
Enzyme mixture was assembled by adding 10 uL of pooled peak fractions (see Example 12) to 40 uL assay solution (62.5 mM sodium borate pH 8.0, 5 units/mL HRP, 10 ppm antifoam). Substrate solution contained 50 mM sodium borate, 100 uM Amplex® red reagent, 20 mM 1,5-diaminopentane, 10 ppm antifoam. The reaction was started by mixing 50 ul of enzyme mixture with 50 ul of substrate solution. […] Reaction mixtures were incubated, at 37° C., in a Molecular Devices M5 plate reader configured to measure fluorescence (ex=544 nm, em=590 nm) in kinetics mode for 1 hour. Data were recorded as the slope of the fluorescence response to time.

T1 sequence (Q9Y4K0 with tags, fused parts or gaps): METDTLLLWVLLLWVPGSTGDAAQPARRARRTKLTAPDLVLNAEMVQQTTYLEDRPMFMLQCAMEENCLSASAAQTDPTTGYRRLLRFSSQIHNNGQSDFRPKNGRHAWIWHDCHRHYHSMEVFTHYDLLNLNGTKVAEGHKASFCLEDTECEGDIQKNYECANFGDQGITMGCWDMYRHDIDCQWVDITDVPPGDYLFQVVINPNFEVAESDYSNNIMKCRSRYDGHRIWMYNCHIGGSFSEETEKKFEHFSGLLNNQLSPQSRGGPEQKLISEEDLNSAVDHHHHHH

| Compound | enzymatic activity (time course of resorufin production, relative fluorescent units) (pooled peak fractions of purified polypeptide, 1 hour) | inhibition of the enzymatic activity of the human LOXL2-derived polypeptide (time course of resorufin production, RFU) (2 mM βAPN in reaction, kinetics mode for 1 hour) |
| --- | --- | --- |
| human LOXL2-derived polypeptide: polypeptide containing the catalytic domain of human LOXL2 with myc epitope tag and His6 purification tag, produced in 293F cells | measurable enzymatic activity |  |
| N#CCCN [βAPN, beta-aminoproprionitrile] |  | inhibited |
